# From publication PMC7480041 (bioRxiv, 2020)
# B1: mBG21 (antibody, V domains shown)
# VH: QIQLVQSGPELKKPGETVKISCKASGYTFTDYSMHWVKQAPGKGSKWMGWINTETGEPTYADDFKGRFAFSLETSASTAYLQINNLKNEDTATYFCALRRWGQGTLVTVSS
# VL: IVMTQTPKFLLVSAGDRVTITCKASQSVSNDVAWFQQKPGQSPKKLLIYFASNRYTGVPDRFTGSGYGTDFTFTITTVQAEDLAVYFCQQDYSSPWTFGGGTKLEIK
# Target: truncated recombinant SARS-CoV-2 nucleocapsid (N) protein, AA133–419 (SARS-CoV-2 (isolate USA-WA1/2020), UniProt P0DTC9)
# Assay: ELISA
binder,measurement,value
B1,corrected average ELISA signal,1.43
